Assay results as given in publication PMC2706296 (Nature structural & molecular biology, 2009).

B1: Seh1 (natural protein, budding yeast (endogenous), UniProt P53011 1-349, looked up)
chain: MQPFDSGHDDLVHDVVYDFYGRHVATCSSDQHIKVFKLDKDTSNWELSDSWRAHDSSIVAIDWASPEYGRIIASASYDKTVKLWEEDPDQEECSGRRWNKLCTLNDSKGSLYSVKFAPAHLGLKLACLGNDGILRLYDALEPSDLRSWTLTSEMKVLSIPPANHLQSDFCLSWCPSRFSPEKLAVSALEQAIIYQRGKDGKLHVAAKLPGHKSLIRSISWAPSIGRWYQLIATGCKDGRIRIFKITEKLSPLASEESLTNSNMFDNSADVDMDAQGRSDSNTEEKAELQSNLQVELLSEHDDHNGEVWSVSWNLTGTILSSAGDDGKVRLWKATYSNEFKCMSVITAQQ
B2: Nup145C (natural protein, budding yeast (endogenous), UniProt P49687 606-1317, looked up)
chain: SIWGLVNEEDAEIDEDDLSKQEDGGEQPLRKVRTLAQSKPSDKEVILKTDGTFGTLSGKDDSIVEEKAYEPDLSDADFEGIEASPKLDVSKDWVEQLILAGSSLRSVFATSKEFDGPCQNEIDLLFSECNDEIDNAKLIMKERRFTASYTFAKFSTGSMLLTKDIVGKSGVSIKRLPTELQRKFLFDDVYLDKEIEKVTIEARKSNPYPQISESSLLFKDALDYMEKTSSDYNLWKLSSILFDPVSYPYKTDNDQVKMALLKKERHCRLTSWIVSQIGPEIEEKIRNSSNEIEQIFLYLLLNDVVRASKLAIESKNGHLSVLISYLGSNDPRIRDLAELQLQKWSTGGCSIDKNISKIYKLLSGSPFEGLFSLKELESEFSWLCLLNLTLCYGQIDEYSLESLVQSHLDKFSLPYDDPIGVIFQLYAANENTEKLYKEVRQRTNALDVQFCWYLIQTLRFNGTRVFSKETSDEATFAFAAQLEFAQLHGHSLFVSCFLNDDKAAEDTIKRLVMREITLLRASTNDHILNRLKIPSQLIFNAQALKDRYEGNYLSEVQNLLLGSSYDLAEMAIVTSLGPRLLLSNNPVQNNELKTLREILNEFPDSERDKWSVSINVFEVYLKLVLDNVETQETIDSLISGMKIFYDQYKHCREVAACCNVMSQEIVSKILEKNNPSIGDSKAKLLELPLGQPEKAYLRGEFAQDLMKCTYKI

Columns and labels:
[1] = target: T1, Nup85 C-terminally tagged with a tandem affinity purification (TAP) tag (budding yeast (endogenous), UniProt P46673 1-744); experiment: affinity purification with mass spectrometry
T1 sequence (looked up): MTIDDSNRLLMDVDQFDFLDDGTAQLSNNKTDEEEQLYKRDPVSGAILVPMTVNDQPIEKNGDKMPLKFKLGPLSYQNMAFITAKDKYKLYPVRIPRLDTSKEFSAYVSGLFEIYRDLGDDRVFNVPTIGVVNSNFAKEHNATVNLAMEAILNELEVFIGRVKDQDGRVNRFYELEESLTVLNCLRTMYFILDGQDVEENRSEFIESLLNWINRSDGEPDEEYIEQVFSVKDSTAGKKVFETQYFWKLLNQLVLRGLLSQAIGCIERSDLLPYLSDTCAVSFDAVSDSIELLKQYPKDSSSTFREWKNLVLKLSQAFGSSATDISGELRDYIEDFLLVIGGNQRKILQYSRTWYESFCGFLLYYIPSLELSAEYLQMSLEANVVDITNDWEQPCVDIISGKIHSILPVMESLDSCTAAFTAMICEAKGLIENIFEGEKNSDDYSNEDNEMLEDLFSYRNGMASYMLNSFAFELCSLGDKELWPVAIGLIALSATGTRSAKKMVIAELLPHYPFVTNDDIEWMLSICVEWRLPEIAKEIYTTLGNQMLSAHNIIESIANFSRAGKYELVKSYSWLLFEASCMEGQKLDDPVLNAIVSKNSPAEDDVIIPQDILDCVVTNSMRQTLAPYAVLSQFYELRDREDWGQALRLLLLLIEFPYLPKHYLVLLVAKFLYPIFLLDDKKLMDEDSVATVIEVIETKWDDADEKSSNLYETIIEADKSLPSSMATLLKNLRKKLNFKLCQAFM

Nup84 = Nup84 (budding yeast (endogenous), UniProt P52891 1-726); experiment: negative-stain EM, random conical tilt 3D reconstruction
Sequence of Nup84 (P52891 whole entry): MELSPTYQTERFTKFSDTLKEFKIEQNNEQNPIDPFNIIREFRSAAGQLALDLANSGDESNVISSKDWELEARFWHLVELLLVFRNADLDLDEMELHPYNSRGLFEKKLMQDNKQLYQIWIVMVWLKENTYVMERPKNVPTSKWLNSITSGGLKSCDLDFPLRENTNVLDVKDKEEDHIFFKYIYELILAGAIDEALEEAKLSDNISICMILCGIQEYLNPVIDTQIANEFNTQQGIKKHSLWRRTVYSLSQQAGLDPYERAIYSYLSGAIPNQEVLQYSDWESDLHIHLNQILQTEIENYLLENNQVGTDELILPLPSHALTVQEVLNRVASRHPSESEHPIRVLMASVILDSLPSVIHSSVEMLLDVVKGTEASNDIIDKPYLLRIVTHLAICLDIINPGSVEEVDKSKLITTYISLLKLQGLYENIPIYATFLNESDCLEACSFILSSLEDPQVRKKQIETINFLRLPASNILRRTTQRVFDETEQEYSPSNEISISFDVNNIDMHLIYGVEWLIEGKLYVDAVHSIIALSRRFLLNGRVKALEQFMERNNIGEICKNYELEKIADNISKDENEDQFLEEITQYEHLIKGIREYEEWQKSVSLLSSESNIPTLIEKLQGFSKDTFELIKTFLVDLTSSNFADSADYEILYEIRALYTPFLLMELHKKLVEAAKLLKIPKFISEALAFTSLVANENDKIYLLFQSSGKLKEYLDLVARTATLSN

Row | Binder | binding result [1] | binding result (Nup84)
1 | B1 | binds | 
2 | B2 |  | binds
